Among the data in US20130345294 are activity values, retold here.

In this data set the target is GAVP(N56K+C71V) N56K,C71V (VIVID numbering) (artificial) (UniProt Q04206). Put plainly: cell_activity.
Chain of UniProt Q04206 (Q04206 whole entry, stated change not applied): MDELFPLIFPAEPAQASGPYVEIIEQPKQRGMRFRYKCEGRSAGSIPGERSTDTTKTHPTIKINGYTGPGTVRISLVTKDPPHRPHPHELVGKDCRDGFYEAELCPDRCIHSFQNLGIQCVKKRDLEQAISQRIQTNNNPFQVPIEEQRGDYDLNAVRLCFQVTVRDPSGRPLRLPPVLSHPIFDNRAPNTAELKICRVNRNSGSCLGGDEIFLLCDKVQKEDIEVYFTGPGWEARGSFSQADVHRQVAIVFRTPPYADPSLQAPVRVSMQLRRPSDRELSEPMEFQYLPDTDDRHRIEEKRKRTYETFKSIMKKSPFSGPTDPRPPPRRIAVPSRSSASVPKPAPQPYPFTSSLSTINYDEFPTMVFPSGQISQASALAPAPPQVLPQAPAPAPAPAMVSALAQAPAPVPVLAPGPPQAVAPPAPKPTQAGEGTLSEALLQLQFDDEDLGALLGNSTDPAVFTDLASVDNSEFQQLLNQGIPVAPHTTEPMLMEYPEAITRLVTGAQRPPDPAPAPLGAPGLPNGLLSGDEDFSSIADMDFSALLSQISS

In the case of 5xUASG-TATA-Fluc, the activity (HEK293 light/dark induction, also active in NIH3T3 and COS-7) worked out at 200 fold. For the substance “TCTAGACGGAGTACTGTCCTCCGAGCGGAGTACTGTCCTCCGACTCGAGCGGAGTACTGTCCTCCGATCGGAGTACTGTCCTCCGCGAATTCCGGAGTACTGTCCTCCGAAGACGCTAGCGGGGGGCTATAAAAGGGGGTGGGGGCGTTCGTCCTCACTCTAGATCTGCGATCTAAGTAAGCTTGGCCACCATGGGAGTCAAAGTTCTGTTTGCCCTGATCTGCATCGCTGTGGCCGAGGCCAAGCCCACCGAGAACAACGAAGACTTCAACATCGTGGCCGTGGCCAGCAACTTCGCGACCACGGATCTCGATGCTGACCGCGGGAAGTTGCCCGGCAAGAAGCTGCCGCTGGAGGTGCTCAAAGAGATGGAAGCCAATGCCCGGAAAGCTGGCTGCACCAGGGGCTGTCTGATCTGCCTGTCCCACATCAAGTGCACGCCCAAGATGAAGAAGTTCATCCCAGGACGCTGCCACACCTACGAAGGCGACAAAGAGTCCGCACAGGGCGGCATAGGCGAGGCGATCGTCGACATTCCTGAGATTCCTGGGTTCAAGGACTTGGAGCCCATGGAGCAGTTCATCGCACAGGTCGATCTGTGTGTGGACTGCACAACTGGCTGCCTCAAAGGGCTTGCCAACGTGCAGTGTTCTGACCTGCTCAAGAAGTGGCTGCCGCAACGCTGTGCGACCTTTGCCAGCAAGATCCAGGGCCAGGTGGACAAGATCAAGGGGGCCGGTGGTGACTAA (double strand) [5xUASG-TATA-Gluc]”, for the setting “HEK293, Gluc after 12 h light, 30-fold after 3 h”, the activity turned out to be 100 fold.
